In one assay the target is T1, human FcγRIIa H131 (human, UniProt P12318 34-317, limits assumed).
T1 construct: FACS implies display on cells, but the methods name no FcγRIIa cell line; also called huFcγRIIa H131
T1 sequence (looked up): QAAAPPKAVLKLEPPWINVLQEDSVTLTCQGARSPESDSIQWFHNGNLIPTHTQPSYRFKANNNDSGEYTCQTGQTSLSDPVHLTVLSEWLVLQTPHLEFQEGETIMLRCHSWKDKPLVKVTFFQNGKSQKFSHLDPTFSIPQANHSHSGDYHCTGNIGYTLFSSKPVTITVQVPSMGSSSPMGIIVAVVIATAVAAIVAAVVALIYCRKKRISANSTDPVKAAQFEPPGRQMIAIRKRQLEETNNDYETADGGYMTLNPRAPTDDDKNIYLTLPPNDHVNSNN
Put plainly: FACS, assay 1 n=3.

For another assay, the target named is T2, human FcγRIIa R131 (human, UniProt P12318 34-317, limits assumed).
T2 construct: FACS implies display on cells, but the methods name no FcγRIIa cell line; also called huFcγRIIa R131
T2 sequence (looked up): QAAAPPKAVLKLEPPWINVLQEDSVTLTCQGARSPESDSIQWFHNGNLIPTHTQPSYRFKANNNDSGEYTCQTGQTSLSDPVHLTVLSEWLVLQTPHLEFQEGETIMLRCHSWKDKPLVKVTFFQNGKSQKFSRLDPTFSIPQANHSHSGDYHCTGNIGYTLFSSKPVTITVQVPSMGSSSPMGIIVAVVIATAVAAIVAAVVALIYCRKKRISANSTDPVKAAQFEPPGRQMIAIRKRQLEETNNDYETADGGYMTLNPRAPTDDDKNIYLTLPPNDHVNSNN
Put plainly: FACS, assay 1 n=3. (Flow cytometry measures light scatter and fluorescence of single cells or particles in a stream.)

The target of assay [1] is T3, FcγRIIIa V158 on HEK293T cells (human, UniProt P08637 17-254).
T3 construct: whole, on cells
T3 sequence (P08637 17-254 F176V): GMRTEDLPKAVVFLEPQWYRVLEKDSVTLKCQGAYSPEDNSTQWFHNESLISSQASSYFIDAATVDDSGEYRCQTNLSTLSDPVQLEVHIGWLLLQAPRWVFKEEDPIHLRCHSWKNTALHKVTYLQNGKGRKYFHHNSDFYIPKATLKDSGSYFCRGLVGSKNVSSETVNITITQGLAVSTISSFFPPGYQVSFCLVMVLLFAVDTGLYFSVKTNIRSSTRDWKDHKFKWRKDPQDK
The experiment in a line: FACS on HEK293T-FcγRIIIa cells, assay 1 n=3.

For assay [2], the target named is T4, FcγRIIIa F158 on HEK293T cells (human, UniProt P08637 17-254).
T4 construct: whole, on cells; also called HEK293T-FcγRIIIa F158
T4 sequence (P08637 17-254): as the sequence (P08637 17-254 F176V) above, with V160F counted along it
Put plainly: FACS on HEK293T-FcγRIIIa cells, assay 1 n=3.

Assay [3] concerns the target huFcγRIIIa_F158 His protein (human, UniProt P08637 17-208). Put plainly: SPR, His-receptor captured, assay 1 n=3. On the technique in general: Surface plasmon resonance follows binding to a sensor surface in real time, without labels.
The target in assay [4] is T5, huFcγRIIIa_V158 His protein (human, UniProt P08637 17-208).
T5 construct: also called His-tagged recombinant human FcγRIIIa-V158
T5 sequence (P08637 17-208 F176V limits assumed): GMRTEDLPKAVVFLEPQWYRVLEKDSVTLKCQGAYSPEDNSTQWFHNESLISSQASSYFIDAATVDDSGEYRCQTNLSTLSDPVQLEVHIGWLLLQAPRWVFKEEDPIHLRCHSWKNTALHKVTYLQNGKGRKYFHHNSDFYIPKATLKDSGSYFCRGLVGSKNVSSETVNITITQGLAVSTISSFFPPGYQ
Put plainly: SPR, His-receptor captured, assay 1 n=3.

A further assay has as its target T6, human FcRn (human, UniProt P55899 24-297).
T6 construct: also called huFcRn; recombinant human FcRn
Put plainly: SPR pH 6.0, huFcRn captured, assay 1 n=3.

huFcγRIIIa_F158 His protein, sequence (P08637 17-208 limits assumed): as the sequence (P08637 17-208 F176V limits assumed) above, with V160F counted along it
T6 sequence (P55899 24-297): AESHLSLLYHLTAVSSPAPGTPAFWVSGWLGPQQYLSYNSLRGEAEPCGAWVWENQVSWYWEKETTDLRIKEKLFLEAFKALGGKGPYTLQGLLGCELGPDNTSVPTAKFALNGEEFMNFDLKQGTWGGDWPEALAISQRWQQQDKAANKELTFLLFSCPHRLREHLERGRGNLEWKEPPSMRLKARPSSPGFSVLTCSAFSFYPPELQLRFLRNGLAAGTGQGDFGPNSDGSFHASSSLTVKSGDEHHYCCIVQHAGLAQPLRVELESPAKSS

B1: mAb1-ADLE-L242C-K334C (antibody)
chain 1: QVQLVQSGAEVKKPGASVKVSCKASGYSFTSYGISWVRQAPGQGLEWMGWISTYKGYTQYAQNFQGRVTITTDTPATTVYMELRSLRSDDTAVYYCARVLSETGYFYYYYYGMDVWGQGTLVTVSSASTKGPSVFPLAPSSKSTSGGTAALGCLVKDYFPEPVTVSWNSGALTSGVHTFPAVLQSSGLYSLSSVVTVPSSSLGTQTYICNVNHKPSNTKVDKKVEPKSCDKTHTCPPCPAPELLAGPDVFCFPPKPKDTLMISRTPEVTCVVVDVSHEDPEVKFNWYVDGVEVHNAKTKPREEQYNSTYRVVSVLTVLHQDWLNGKEYKCKVSNKALPLPEECTISKAKGQPREPQVYTLPPSRDELTKNQVSLTCLVKGFYPSDIAVEWESNGQPENNYKTTPPVLDSDGSFFLYSKLTVDKSRWQQGNVFSCSVMHEALHNHYTQKSLSLSPG
chain 2: QAVVTQPPSVSGAPGQRVTISCTGSSSNIGADYNVHWYQLLPGTAPKLLIYGNTNRPSGVPDRFSGSKSGTSASLAITGLQAEDEADYYCQSYDSSLSASVFGGGTKLTVLGQPKAAPSVTLFPPSSEELQANKATLVCLISDFYPGAVTVAWKADSSPVKAGVETTTPSKQSNNKYAASSYLSLTPEQWKSHRSYSCQVTHEGSTVEKTVAPTECS
B1: the concentration for a half-maximal effect (EC50) with human FcγRIIa H131 was determined as 145 nM; with human FcγRIIa R131, 428 nM; in assay [1] it was 5 nM; in assay [2], 11 nM. The Kd in assay [3] stood at 148 nM; in assay [4], 161 nM; with human FcRn it was 956 nM.

B2: mAb1-ADE-DQ (antibody)
chain 1: QVQLVQSGAEVKKPGASVKVSCKASGYSFTSYGISWVRQAPGQGLEWMGWISTYKGYTQYAQNFQGRVTITTDTPATTVYMELRSLRSDDTAVYYCARVLSETGYFYYYYYGMDVWGQGTLVTVSSASTKGPSVFPLAPSSKSTSGGTAALGCLVKDYFPEPVTVSWNSGALTSGVHTFPAVLQSSGLYSLSSVVTVPSSSLGTQTYICNVNHKPSNTKVDKKVEPKSCDKTHTCPPCPAPELLAGPDVFLFPPKPKDTLMISRDPEVTCVVVDVSHEDPEVKFNWYVDGVEVHNAKTKPREEQYNSTYRVVSVLQVLHQDWLNGKEYKCKVSNKALPAPEEKTISKAKGQPREPQVYTLPPSRDELTKNQVSLTCLVKGFYPSDIAVEWESNGQPENNYKTTPPVLDSDGSFFLYSKLTVDKSRWQQGNVFSCSVMHEALHNHYTQKSLSLSPG
chain 2: QAVVTQPPSVSGAPGQRVTISCTGSSSNIGADYNVHWYQLLPGTAPKLLIYGNTNRPSGVPDRFSGSKSGTSASLAITGLQAEDEADYYCQSYDSSLSASVFGGGTKLTVLGQPKAAPSVTLFPPSSEELQANKATLVCLISDFYPGAVTVAWKADSSPVKAGVETTTPSKQSNNKYAASSYLSLTPEQWKSHRSYSCQVTHEGSTVEKTVAPTECS
As to B2, the EC50 with human FcγRIIa H131 is 14 nM; with human FcγRIIa R131, 18 nM; in assay [1], 4 nM; in assay [2] it was 13 nM. In addition, the results for the Kd (in assay [3]; in assay [4]; with human FcRn) were 183 nM, 155 nM and 217 nM, respectively.

B3: mAb1-ADE-L242C-K334C (antibody)
chain 1: QVQLVQSGAEVKKPGASVKVSCKASGYSFTSYGISWVRQAPGQGLEWMGWISTYKGYTQYAQNFQGRVTITTDTPATTVYMELRSLRSDDTAVYYCARVLSETGYFYYYYYGMDVWGQGTLVTVSSASTKGPSVFPLAPSSKSTSGGTAALGCLVKDYFPEPVTVSWNSGALTSGVHTFPAVLQSSGLYSLSSVVTVPSSSLGTQTYICNVNHKPSNTKVDKKVEPKSCDKTHTCPPCPAPELLAGPDVFCFPPKPKDTLMISRTPEVTCVVVDVSHEDPEVKFNWYVDGVEVHNAKTKPREEQYNSTYRVVSVLTVLHQDWLNGKEYKCKVSNKALPAPEECTISKAKGQPREPQVYTLPPSRDELTKNQVSLTCLVKGFYPSDIAVEWESNGQPENNYKTTPPVLDSDGSFFLYSKLTVDKSRWQQGNVFSCSVMHEALHNHYTQKSLSLSPG
chain 2: QAVVTQPPSVSGAPGQRVTISCTGSSSNIGADYNVHWYQLLPGTAPKLLIYGNTNRPSGVPDRFSGSKSGTSASLAITGLQAEDEADYYCQSYDSSLSASVFGGGTKLTVLGQPKAAPSVTLFPPSSEELQANKATLVCLISDFYPGAVTVAWKADSSPVKAGVETTTPSKQSNNKYAASSYLSLTPEQWKSHRSYSCQVTHEGSTVEKTVAPTECS
With B3, the EC50 with human FcγRIIa H131 turned out to be 102 nM; with human FcγRIIa R131 it was 142 nM; in assay [1] it was 5 nM; in assay [2], 18 nM. For the same molecule, the Kd was 193 nM in assay [3], 162 nM in assay [4] and 829 nM with human FcRn.

B4: mAb1-ADE-R292C-V302C (antibody)
chain 1: QVQLVQSGAEVKKPGASVKVSCKASGYSFTSYGISWVRQAPGQGLEWMGWISTYKGYTQYAQNFQGRVTITTDTPATTVYMELRSLRSDDTAVYYCARVLSETGYFYYYYYGMDVWGQGTLVTVSSASTKGPSVFPLAPSSKSTSGGTAALGCLVKDYFPEPVTVSWNSGALTSGVHTFPAVLQSSGLYSLSSVVTVPSSSLGTQTYICNVNHKPSNTKVDKKVEPKSCDKTHTCPPCPAPELLAGPDVFLFPPKPKDTLMISRTPEVTCVVVDVSHEDPEVKFNWYVDGVEVHNAKTKPCEEQYNSTYRCVSVLTVLHQDWLNGKEYKCKVSNKALPAPEEKTISKAKGQPREPQVYTLPPSRDELTKNQVSLTCLVKGFYPSDIAVEWESNGQPENNYKTTPPVLDSDGSFFLYSKLTVDKSRWQQGNVFSCSVMHEALHNHYTQKSLSLSPG
chain 2: QAVVTQPPSVSGAPGQRVTISCTGSSSNIGADYNVHWYQLLPGTAPKLLIYGNTNRPSGVPDRFSGSKSGTSASLAITGLQAEDEADYYCQSYDSSLSASVFGGGTKLTVLGQPKAAPSVTLFPPSSEELQANKATLVCLISDFYPGAVTVAWKADSSPVKAGVETTTPSKQSNNKYAASSYLSLTPEQWKSHRSYSCQVTHEGSTVEKTVAPTECS
In the case of B4, the EC50 in the assay with human FcγRIIa H131 was found to be 92 nM; in the assay with human FcγRIIa R131, 43 nM; in assay [1], 12 nM; in assay [2], 19 nM. Moreover, the dissociation constant Kd was found to be 211 nM in assay [3], 172 nM in assay [4] and 1310 nM with human FcRn.

B5: mAb1-ADE-DQ-L242C-K334C (antibody)
chain 1: QVQLVQSGAEVKKPGASVKVSCKASGYSFTSYGISWVRQAPGQGLEWMGWISTYKGYTQYAQNFQGRVTITTDTPATTVYMELRSLRSDDTAVYYCARVLSETGYFYYYYYGMDVWGQGTLVTVSSASTKGPSVFPLAPSSKSTSGGTAALGCLVKDYFPEPVTVSWNSGALTSGVHTFPAVLQSSGLYSLSSVVTVPSSSLGTQTYICNVNHKPSNTKVDKKVEPKSCDKTHTCPPCPAPELLAGPDVFCFPPKPKDTLMISRDPEVTCVVVDVSHEDPEVKFNWYVDGVEVHNAKTKPREEQYNSTYRVVSVLQVLHQDWLNGKEYKCKVSNKALPAPEECTISKAKGQPREPQVYTLPPSRDELTKNQVSLTCLVKGFYPSDIAVEWESNGQPENNYKTTPPVLDSDGSFFLYSKLTVDKSRWQQGNVFSCSVMHEALHNHYTQKSLSLSPG
chain 2: QAVVTQPPSVSGAPGQRVTISCTGSSSNIGADYNVHWYQLLPGTAPKLLIYGNTNRPSGVPDRFSGSKSGTSASLAITGLQAEDEADYYCQSYDSSLSASVFGGGTKLTVLGQPKAAPSVTLFPPSSEELQANKATLVCLISDFYPGAVTVAWKADSSPVKAGVETTTPSKQSNNKYAASSYLSLTPEQWKSHRSYSCQVTHEGSTVEKTVAPTECS
In the case of B5, the concentration giving a half-maximal response (EC50) with human FcγRIIa H131 was determined as 68 nM; in the assay with human FcγRIIa R131, 152 nM; in assay [1] it was 7 nM; in assay [2] it was 19 nM. Besides, the Kd came out at 211 nM in assay [3], 191 nM in assay [4] and 161 nM with human FcRn.

B6: mAb1-ADE-DQ-R292C-V302C (antibody)
chain 1: QVQLVQSGAEVKKPGASVKVSCKASGYSFTSYGISWVRQAPGQGLEWMGWISTYKGYTQYAQNFQGRVTITTDTPATTVYMELRSLRSDDTAVYYCARVLSETGYFYYYYYGMDVWGQGTLVTVSSASTKGPSVFPLAPSSKSTSGGTAALGCLVKDYFPEPVTVSWNSGALTSGVHTFPAVLQSSGLYSLSSVVTVPSSSLGTQTYICNVNHKPSNTKVDKKVEPKSCDKTHTCPPCPAPELLAGPDVFLFPPKPKDTLMISRDPEVTCVVVDVSHEDPEVKFNWYVDGVEVHNAKTKPCEEQYNSTYRCVSVLQVLHQDWLNGKEYKCKVSNKALPAPEEKTISKAKGQPREPQVYTLPPSRDELTKNQVSLTCLVKGFYPSDIAVEWESNGQPENNYKTTPPVLDSDGSFFLYSKLTVDKSRWQQGNVFSCSVMHEALHNHYTQKSLSLSPG
chain 2: QAVVTQPPSVSGAPGQRVTISCTGSSSNIGADYNVHWYQLLPGTAPKLLIYGNTNRPSGVPDRFSGSKSGTSASLAITGLQAEDEADYYCQSYDSSLSASVFGGGTKLTVLGQPKAAPSVTLFPPSSEELQANKATLVCLISDFYPGAVTVAWKADSSPVKAGVETTTPSKQSNNKYAASSYLSLTPEQWKSHRSYSCQVTHEGSTVEKTVAPTECS
B6: the concentration giving a half-maximal response (EC50) with human FcγRIIa H131 stood at 101 nM; with human FcγRIIa R131, 45 nM; in assay [1], 10 nM; in assay [2], 17 nM. The Kd worked out at 202 nM in assay [3], 214 nM in assay [4] and 198 nM in the assay with human FcRn.

In general, EC50 refers to the concentration giving half of the maximal effect. Low values mean higher potency in that assay, high ones lower potency in that assay. One may read the Kd as the constant that tells how readily two partners part at equilibrium. A high value points to weaker binding.

These data come from patent US20230077531A1 (Sanofi, published 2023).
